Experimental data as given in publication PMC10681739, “High-throughput data and modeling reveal insights into the mechanisms of cooperative DNA-binding by transcription factor proteins”.

T1: ETS1 x2 (Homo sapiens, UniProt P14921)
T1 sequence: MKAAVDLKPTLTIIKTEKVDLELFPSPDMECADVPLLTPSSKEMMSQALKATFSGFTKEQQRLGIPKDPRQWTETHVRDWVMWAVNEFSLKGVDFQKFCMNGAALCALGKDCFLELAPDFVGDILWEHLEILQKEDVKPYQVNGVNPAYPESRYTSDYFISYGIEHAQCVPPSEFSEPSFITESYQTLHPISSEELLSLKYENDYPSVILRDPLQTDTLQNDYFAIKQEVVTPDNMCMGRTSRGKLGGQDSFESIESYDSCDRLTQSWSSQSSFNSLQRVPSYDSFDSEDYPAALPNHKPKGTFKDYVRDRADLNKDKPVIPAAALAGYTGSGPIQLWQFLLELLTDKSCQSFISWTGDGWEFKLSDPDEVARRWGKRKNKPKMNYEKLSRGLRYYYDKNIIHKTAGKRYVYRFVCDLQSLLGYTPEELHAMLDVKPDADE


Key:
[1] = target: T1, ETS1 x2; assay: gcPBM; 10 nM ETS1; settings: tags: N-terminal GST (pDEST15), kept (PMC6008103); chain copies: 2; label: surface-attached array probe
[2] = target: ETS1:RUNX1 (Homo sapiens, UniProt P14921;Q01196 full;full); assay: gcPBM; 1 nM ETS1 + 25 nM RUNX1, anti-ETS1 signal, normalised; settings: tags: N-terminal GST (pDEST15), kept (PMC6008103); copies: 1;1; label: surface-attached array probe
Sequence of ETS1:RUNX1 (Q01196 whole entry, one chain of several): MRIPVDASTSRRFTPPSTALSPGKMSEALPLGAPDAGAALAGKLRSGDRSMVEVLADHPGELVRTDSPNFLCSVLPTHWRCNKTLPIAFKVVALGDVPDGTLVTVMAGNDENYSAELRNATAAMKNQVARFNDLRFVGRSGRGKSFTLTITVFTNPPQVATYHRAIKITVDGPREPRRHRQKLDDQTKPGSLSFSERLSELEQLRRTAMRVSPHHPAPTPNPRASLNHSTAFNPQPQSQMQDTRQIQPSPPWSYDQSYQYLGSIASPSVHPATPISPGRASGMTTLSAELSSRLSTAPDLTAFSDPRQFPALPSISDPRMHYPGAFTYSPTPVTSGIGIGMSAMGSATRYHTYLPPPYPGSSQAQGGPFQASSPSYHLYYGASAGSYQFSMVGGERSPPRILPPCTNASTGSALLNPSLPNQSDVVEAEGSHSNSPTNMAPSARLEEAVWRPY

Binder | binding signal [1] | binding signal [2]
Table S4 A row 1584 (dsDNA) DNA 1: TGTGTCGGACAGGAACTCGGCTTCCTTTGTGCCTCT DNA 2: AGAGGCACAAAGGAAGCCGAGTTCCTGTCCGACACA | 1040 PBM fluorescence, median of replicate spots | –
Table S4 A row 273 (dsDNA) DNA 1: TAATACAACTGGGGAAGTCACTTCCTTGCTGAGCTT DNA 2: AAGCTCAGCAAGGAAGTGACTTCCCCAGTTGTATTA | 849 PBM fluorescence, median of replicate spots | –
Table S4 A row 1783 (dsDNA) DNA 1: ACCCCGGATGGCACCGCGAGTCCCCGTTTCCGACAA DNA 2: TTGTCGGAAACGGGGACTCGCGGTGCCATCCGGGGT | 645 PBM fluorescence, median of replicate spots | –
Table S2 A row 127 (dsDNA) DNA 1: CAAGCCAGGAAGAGGGCCCTCACCAGAAACCGCACT DNA 2: AGTGCGGTTTCTGGTGAGGGCCCTCTTCCTGGCTTG | – | 1640 PBM fluorescence, median of replicate spots
Table S2 A row 342 (dsDNA) DNA 1: ACACCCCAGGAAGTGGCAGAGACCACAACAAGTCAG DNA 2: CTGACTTGTTGTGGTCTCTGCCACTTCCTGGGGTGT | – | 1810 PBM fluorescence, median of replicate spots
Table S4 A row 1107 (dsDNA) DNA 1: ACGGCCACCAGGAGGAAACTTCCTCTGAATCTTCCA DNA 2: TGGAAGATTCAGAGGAAGTTTCCTCCTGGTGGCCGT | 872 PBM fluorescence, median of replicate spots | –
Table S2 A row 988 (dsDNA) DNA 1: TCATGCTGCTTCCTGCCCAACCCGCAGTTCCGATAA DNA 2: TTATCGGAACTGCGGGTTGGGCAGGAAGCAGCATGA | – | 1730 PBM fluorescence, median of replicate spots
Table S4 A row 1336 (dsDNA) DNA 1: AGGTCGGAAGCGCTTCTACTGCAGCTCCGGAAAGGG DNA 2: CCCTTTCCGGAGCTGCAGTAGAAGCGCTTCCGACCT | 806 PBM fluorescence, median of replicate spots | –
Table S2 A row 1411 (dsDNA) DNA 1: GAGGGGGAGGTTTCCGGGGCCTGTGGTTACTACACT DNA 2: AGTGTAGTAACCACAGGCCCCGGAAACCTCCCCCTC | – | 1620 PBM fluorescence, median of replicate spots
Table S2 A row 1399 (dsDNA) DNA 1: TCGCACCGGAACCCCTTGGCGGATTATGTGGGTTCC DNA 2: GGAACCCACATAATCCGCCAAGGGGTTCCGGTGCGA | – | 1490 PBM fluorescence, median of replicate spots
Table S2 A row 1129 (dsDNA) DNA 1: CACTTCCTCCTCGGGGGCCTCAGAAAACCACAGGGC DNA 2: GCCCTGTGGTTTTCTGAGGCCCCCGAGGAGGAAGTG | – | 1580 PBM fluorescence, median of replicate spots
Table S2 A row 1056 (dsDNA) DNA 1: GGGTCTCCAGGAAGCCACTCACCACAAACTTTGACA DNA 2: TGTCAAAGTTTGTGGTGAGTGGCTTCCTGGAGACCC | – | 1560 PBM fluorescence, median of replicate spots
Table S2 A row 963 (dsDNA) DNA 1: GGGTCGCGGCCTTCCGGCGAACGCGGTTACCGTGGA DNA 2: TCCACGGTAACCGCGTTCGCCGGAAGGCCGCGACCC | – | 1180 PBM fluorescence, median of replicate spots
Table S4 A row 761 (dsDNA) DNA 1: TTGCCGGATGAGGTTGGTTGTCTCTAATTTCCTCTC DNA 2: GAGAGGAAATTAGAGACAACCAACCTCATCCGGCAA | 764 PBM fluorescence, median of replicate spots | –
Table S2 A row 465 (dsDNA) DNA 1: TGAGGGGCTCGCCGGGAAATGTGGTTTAGCGGCCCT DNA 2: AGGGCCGCTAAACCACATTTCCCGGCGAGCCCCTCA | – | 1230 PBM fluorescence, median of replicate spots
Table S2 A row 769 (dsDNA) DNA 1: CAAGCCAACATCCTGACAGTTTAGAAACCACAGGAG DNA 2: CTCCTGTGGTTTCTAAACTGTCAGGATGTTGGCTTG | – | 1670 PBM fluorescence, median of replicate spots
Table S4 A row 258 (dsDNA) DNA 1: GCTTATCACTGAAGGAAACAGGATGCTAAATGTACG DNA 2: CGTACATTTAGCATCCTGTTTCCTTCAGTGATAAGC | 844 PBM fluorescence, median of replicate spots | –
Table S4 A row 493 (dsDNA) DNA 1: TGGTAAACGGAAGAGACCTCTCCTGTTCCGGGAGTA DNA 2: TACTCCCGGAACAGGAGAGGTCTCTTCCGTTTACCA | 743 PBM fluorescence, median of replicate spots | –
Table S2 A row 140 (dsDNA) DNA 1: AGTTACAGTAAAGGATGTGGTGAAACAGATGTTTAT DNA 2: ATAAACATCTGTTTCACCACATCCTTTACTGTAACT | – | 1480 PBM fluorescence, median of replicate spots
Table S2 A row 378 (dsDNA) DNA 1: GAAAAAAATGAGCTTCCTTTAACCACAACTGTATTA DNA 2: TAATACAGTTGTGGTTAAAGGAAGCTCATTTTTTTC | – | 1320 PBM fluorescence, median of replicate spots
Table S2 A row 337 (dsDNA) DNA 1: ATAGTCTCTTCCTGTGTTGCAAACCACAGGTCCACC DNA 2: GGTGGACCTGTGGTTTGCAACACAGGAAGAGACTAT | – | 1690 PBM fluorescence, median of replicate spots

Binder | binding signal [1] | binding signal [2]
Table S4 A row 1360 (dsDNA) DNA 1: CAGAACGCACAGGAAGAGAGAGGAAACCAAGTGGGT DNA 2: ACCCACTTGGTTTCCTCTCTCTTCCTGTGCGTTCTG | 1100 PBM fluorescence, median of replicate spots | –
Table S2 A row 712 (dsDNA) DNA 1: GACTTTTACGGAAATAGCAGTCCAAAACCGCGTCTA DNA 2: TAGACGCGGTTTTGGACTGCTATTTCCGTAAAAGTC | – | 1340 PBM fluorescence, median of replicate spots
Table S4 A row 1346 (dsDNA) DNA 1: TTCCCAGGAAGCCCCAAAGCCCTGGCTTCCGCCCAA DNA 2: TTGGGCGGAAGCCAGGGCTTTGGGGCTTCCTGGGAA | 774 PBM fluorescence, median of replicate spots | –
Table S2 A row 1529 (dsDNA) DNA 1: GGTGCCTGGGGAGGATGTGGGCTGACTGGGAGGGGT DNA 2: ACCCCTCCCAGTCAGCCCACATCCTCCCCAGGCACC | – | 1520 PBM fluorescence, median of replicate spots
Table S2 A row 672 (dsDNA) DNA 1: ATGTGCCCAAAGGATGTCACCGCAAAGATCATAGGA DNA 2: TCCTATGATCTTTGCGGTGACATCCTTTGGGCACAT | – | 1400 PBM fluorescence, median of replicate spots
Table S4 A row 2621 (dsDNA) DNA 1: TGGAGCCGGGGGAAGTGGGAGCATCCGCAGCCCCGC DNA 2: GCGGGGCTGCGGATGCTCCCACTTCCCCCGGCTCCA | 698 PBM fluorescence, median of replicate spots | –
Table S2 A row 83 (dsDNA) DNA 1: GACAGACCTTAGGAAGTCGCGGTTTCATCAGGGCTT DNA 2: AAGCCCTGATGAAACCGCGACTTCCTAAGGTCTGTC | – | 1710 PBM fluorescence, median of replicate spots
Table S2 A row 388 (dsDNA) DNA 1: GCAGTTTCAAGAGGATGTGGTCTCTTTCACTGCCTG DNA 2: CAGGCAGTGAAAGAGACCACATCCTCTTGAAACTGC | – | 1800 PBM fluorescence, median of replicate spots
Table S4 A row 1719 (dsDNA) DNA 1: GGACCTACAGGAAGACTGACTAGCTTCCTTCGAGCC DNA 2: GGCTCGAAGGAAGCTAGTCAGTCTTCCTGTAGGTCC | 912 PBM fluorescence, median of replicate spots | –
Table S2 A row 1444 (dsDNA) DNA 1: TGCTTAGCGGGAAGTGCTTACACCACAAAACAAGAC DNA 2: GTCTTGTTTTGTGGTGTAAGCACTTCCCGCTAAGCA | – | 1280 PBM fluorescence, median of replicate spots
Table S2 A row 1237 (dsDNA) DNA 1: AGCCTACATCCTGCACTGCTTAACCACAGCCCGCCT DNA 2: AGGCGGGCTGTGGTTAAGCAGTGCAGGATGTAGGCT | – | 1360 PBM fluorescence, median of replicate spots
Table S2 A row 1288 (dsDNA) DNA 1: TCTCTATGGTTTCCGTTGGGTGTGTGGTTTTTTTGT DNA 2: ACAAAAAAACCACACACCCAACGGAAACCATAGAGA | – | 1410 PBM fluorescence, median of replicate spots
Table S2 A row 1000 (dsDNA) DNA 1: CCCATTTCCTGCTCTCCAGAGTTAACCACTGAAGTC DNA 2: GACTTCAGTGGTTAACTCTGGAGAGCAGGAAATGGG | – | 1350 PBM fluorescence, median of replicate spots
Table S2 A row 1201 (dsDNA) DNA 1: GTTGAGTTCCGGGGGAGGTTGAGTTCCTGCGGTCAA DNA 2: TTGACCGCAGGAACTCAACCTCCCCCGGAACTCAAC | – | 1630 PBM fluorescence, median of replicate spots
Table S4 A row 1074 (dsDNA) DNA 1: CACGCACATCCCCAGTGAGTAACACTTCCTGAGGGC DNA 2: GCCCTCAGGAAGTGTTACTCACTGGGGATGTGCGTG | 653 PBM fluorescence, median of replicate spots | –
Table S4 A row 1993 (dsDNA) DNA 1: ATCACGGGGCCCATCCGGGGAGGAAGGCGGCACAGG DNA 2: CCTGTGCCGCCTTCCTCCCCGGATGGGCCCCGTGAT | 950 PBM fluorescence, median of replicate spots | –
Table S4 A row 1968 (dsDNA) DNA 1: GTGATTGGCAGGATCCTGGTATCCGCTAACAGGTAC DNA 2: GTACCTGTTAGCGGATACCAGGATCCTGCCAATCAC | 599 PBM fluorescence, median of replicate spots | –
Table S2 A row 308 (dsDNA) DNA 1: GCCGCTGCCTCTTCCTGTGTGGTTTTTCAGGGCTTA DNA 2: TAAGCCCTGAAAAACCACACAGGAAGAGGCAGCGGC | – | 1610 PBM fluorescence, median of replicate spots
Table S2 A row 670 (dsDNA) DNA 1: TGAGCACAGTATTTCCTGTGGTTTCTATTGCATTTC DNA 2: GAAATGCAATAGAAACCACAGGAAATACTGTGCTCA | – | 1550 PBM fluorescence, median of replicate spots
Table S4 A row 1105 (dsDNA) DNA 1: GCCAGAGGGGCGGAAGAACCCGGAAGACCCAGGCAG DNA 2: CTGCCTGGGTCTTCCGGGTTCTTCCGCCCCTCTGGC | 832 PBM fluorescence, median of replicate spots | –
